Laboratory results reported in patent US8088617B2, “Antibodies that bind the glutamate ligand binding region of Notch1” (OncoMed Pharmaceuticals, Inc., priority 2007, dated 2012).
Entries after “also recorded” stand apart in the source; their conditions may differ.

B1: 122R5: lead anti-Notch3 fAb; heavy chain SEQ ID NO: 9, light chain SEQ ID NO: 13; ATCC PTA-8908 (antibody)
heavy: MKHLWFFLLLVAAPRWVLSQVQLVESGGGLVQPGGSLRLSCAASGFTFSDNAIHWVRQAPGKGLEWVSAISSYGSGTYYADSVKGRFTISRDNSKNTLYLQMNSLRAEDTAVYYCARPGFQFSFTFMDIWGQGTLVTVSSASTKGPSVFPLAPCSRSTSESTAALGCLVKDYFPEPVTVSWNSGALTSGVHTFPAVLQSSGLYSLSSVVTVPSSNFGTQTYTCNVDHKPSNTKVDKTVERKCCVECPPCPAPPVAGPSVFLFPPKPKDTLMISRTPEVTCVVVDVSHEDPEVQFNWYVDGVEVHNAKTKPREEQFNSTFRVVSVLTVVHQDWLNGKEYKCKVSNKGLPAPIEKTISKTKGQPREPQVYTLPPSREEMTKNQVSLTCLVKGFYPSDIAVEWESNGQPENNYKTTPPMLDSDGSFFLYSKLTVDKSRWQQGNVFSCSVMHEALHNHYTQKSLSLSPGK
light: MAWALLLLTLLTQGTGSWADIELTQPPSVSVAPGQTARISCSGDALGSKYASWYQQKPGQAPVLVIYDDKNRPSGIPERFSGSNSGNTATLTISGTQAEDEADYYCQSWDGKSKVVFGGGTKLTVLGQPKAAPSVTLFPPSSEELQANKATLVCLISDFYPGAVTVAWKADSSPVKAGVETTTPSKQSNNKYAASSYLSLTPEQWKSHRSYSCQVTHEGSTVEKTVAPTECS
modifications: Synthetic 122R5 Heavy chain; Synthetic 122R5 Light chain
B2: 90R21: affinity matured anti-Notch1 ligand binding domain antibody; heavy chain SEQ ID NO: 1, light chain SEQ ID NO: 5; ATCC PTA-8909 (antibody)
heavy: MKHLWFFLLLVAAPRWVLSEVQLLESGGGLVQPGGSLRLSCAASGFTFSNYGMSWVRQAPGKGLEWVSSISGYGSNTYYADSVKGRFTISRDNSKNTLYLQMNSLRAEDTAVYYCARISQQAVWGQGTLVTVSSASTKGPSVFPLAPCSRSTSESTAALGCLVKDYFPEPVTVSWNSGALTSGVHTFPAVLQSSGLYSLSSVVTVPSSNFGTQTYTCNVDHKPSNTKVDKTVERKCCVECPPCPAPPVAGPSVFLFPPKPKDTLMISRTPEVTCVVVDVSHEDPEVQFNWYVDGVEVHNAKTKPREEQFNSTFRVVSVLTVVHQDWLNGKEYKCKVSNKGLPAPIEKTISKTKGQPREPQVYTLPPSREEMTKNQVSLTCLVKGFYPSDIAVEWESNGQPENNYKTTPPMLDSDGSFFLYSKLTVDKSRWQQGNVFSCSVMHEALHNHYTQKSLSLSPGK
light: MAWALLLLTLLTQGTGSWAQSALTQPASVSGSPGQSITISCTGTSSDIGGYQYVSWYQQHPGKAPKLMIYYVSNRPSGVSNRFSGSKSGNTASLTISGLQAEDEADYYCQSADSSSWVFGGGTKLTVLGQPKAAPSVTLFPPSSEELQANKATLVCLISDFYPGAVTVAWKADSSPVKAGVETTTPSKQSNNKYAASSYLSLTPEQWKSHRSYSCQVTHEGSTVEKTVAPTECS
modifications: Synthetic 90R21 Heavy chain; Synthetic 90R21 Light chain

Legend:
[1] = system: Notch signaling (ICD formation) in Hela cells stably expressing Notch1; assay: Western blot of Notch ICD formation in response to DLL4; format: cell-based; details: 10 ug/ml soluble DLL4-Fc; western blot of cell lysates
Source text: FIG. 8: Monoclonal Antibodies to the Notch Ligand Binding Domain Inhibit Notch Signaling. A) A schematic of the Notch signaling mechanism. Upon ligand binding, gamma secretase activity cleaves the Notch receptor and liberates the intracellular domain (ICD) to activate downstream Notch signaling. B) Monoclonal antibodies against the Notch ligand binding domain inhibit Notch signaling in response to Notch ligand DLL4.
In certain embodiments, the ability of antibodies against a Notch ligand binding region to block Notch signaling was measured by inhibition of Notch cleavage in response to ligand stimulation. Hela cells stably expressing Notch1 were cultured in DMEM supplemented with antibiotics and 10% FCS. Cells were then incubated in the presence of 10 ug/ml soluble DLL4-Fc protein in the presence or absence of monoclonal antibodies against a Notch ligand binding domain, control antibodies, antibodies against Notch1 binding outside the ligand binding region (13M57), and gamma secretase inhibitor DBZ. Cells were harvested and cell lysates analyzed by western blot using an antibody that recognizes the cleaved intracellular domain (ICD) of Notch generated in response to ligand induced signaling (FIG. 8A).

[2] = molecular target: murine Notch3 (Mus musculus, UniProt Q61982); assay: fAb binding to murine Notch3 (phage display selection)
Protocol: (§1) In certain embodiments, phage display identified a specific fAb that binds to the ligand binding domain within Notch1. In certain embodiments, phage display identified a specific fAb that binds to the ligand binding domain within Notch3. In certain embodiments, a fAb was discovered that bound to the ligand binding domain of both Notch3 and Notch1. In certain embodiments, 2×10^13 Fab displaying phage particles from a human fAb phage library were incubated with cells expressing full length recombinant protein or passively immobilized recombinant protein fragments, non-specific phage were washed off, and then specific phage were eluted with either low pH (cells) or DTT (recombinant protein). The eluted output was used to infect TG1 F+ bacteria, rescued with helper phage, and then Fab display induced with IPTG (0.25 mM). The output of this rescued round one served as the starting point for further selections in rounds two, three, four, and five as indicated in Table 1.
(§2) For Notch3, the phage display library was panned for binding to the analogous epitope within Notch3 (comprising amino acid 403 of Notch3) using similar approach for as Notch1. […] The 122R5 heavy chain comprises the amino acids of SEQ ID NO: 9, including CDR1 (SEQ ID NO: 10); CDR2 (SEQ ID NO: 11) and CDR3 (SEQ ID NO: 12). […]

[3] = molecular target: T1, wild type full length Notch1 (Homo sapiens, UniProt P46531); assay: FACS binding to HEK293 cells co-transfected with GFP and wild type Notch1; details: HEK293 cells co-transfected with GFP
T1 construct: co-transfected with GFP and either wild type full length Notch1; expressed in transfected cells; host or cells: HEK293
T1 sequence (P46531 19-2555): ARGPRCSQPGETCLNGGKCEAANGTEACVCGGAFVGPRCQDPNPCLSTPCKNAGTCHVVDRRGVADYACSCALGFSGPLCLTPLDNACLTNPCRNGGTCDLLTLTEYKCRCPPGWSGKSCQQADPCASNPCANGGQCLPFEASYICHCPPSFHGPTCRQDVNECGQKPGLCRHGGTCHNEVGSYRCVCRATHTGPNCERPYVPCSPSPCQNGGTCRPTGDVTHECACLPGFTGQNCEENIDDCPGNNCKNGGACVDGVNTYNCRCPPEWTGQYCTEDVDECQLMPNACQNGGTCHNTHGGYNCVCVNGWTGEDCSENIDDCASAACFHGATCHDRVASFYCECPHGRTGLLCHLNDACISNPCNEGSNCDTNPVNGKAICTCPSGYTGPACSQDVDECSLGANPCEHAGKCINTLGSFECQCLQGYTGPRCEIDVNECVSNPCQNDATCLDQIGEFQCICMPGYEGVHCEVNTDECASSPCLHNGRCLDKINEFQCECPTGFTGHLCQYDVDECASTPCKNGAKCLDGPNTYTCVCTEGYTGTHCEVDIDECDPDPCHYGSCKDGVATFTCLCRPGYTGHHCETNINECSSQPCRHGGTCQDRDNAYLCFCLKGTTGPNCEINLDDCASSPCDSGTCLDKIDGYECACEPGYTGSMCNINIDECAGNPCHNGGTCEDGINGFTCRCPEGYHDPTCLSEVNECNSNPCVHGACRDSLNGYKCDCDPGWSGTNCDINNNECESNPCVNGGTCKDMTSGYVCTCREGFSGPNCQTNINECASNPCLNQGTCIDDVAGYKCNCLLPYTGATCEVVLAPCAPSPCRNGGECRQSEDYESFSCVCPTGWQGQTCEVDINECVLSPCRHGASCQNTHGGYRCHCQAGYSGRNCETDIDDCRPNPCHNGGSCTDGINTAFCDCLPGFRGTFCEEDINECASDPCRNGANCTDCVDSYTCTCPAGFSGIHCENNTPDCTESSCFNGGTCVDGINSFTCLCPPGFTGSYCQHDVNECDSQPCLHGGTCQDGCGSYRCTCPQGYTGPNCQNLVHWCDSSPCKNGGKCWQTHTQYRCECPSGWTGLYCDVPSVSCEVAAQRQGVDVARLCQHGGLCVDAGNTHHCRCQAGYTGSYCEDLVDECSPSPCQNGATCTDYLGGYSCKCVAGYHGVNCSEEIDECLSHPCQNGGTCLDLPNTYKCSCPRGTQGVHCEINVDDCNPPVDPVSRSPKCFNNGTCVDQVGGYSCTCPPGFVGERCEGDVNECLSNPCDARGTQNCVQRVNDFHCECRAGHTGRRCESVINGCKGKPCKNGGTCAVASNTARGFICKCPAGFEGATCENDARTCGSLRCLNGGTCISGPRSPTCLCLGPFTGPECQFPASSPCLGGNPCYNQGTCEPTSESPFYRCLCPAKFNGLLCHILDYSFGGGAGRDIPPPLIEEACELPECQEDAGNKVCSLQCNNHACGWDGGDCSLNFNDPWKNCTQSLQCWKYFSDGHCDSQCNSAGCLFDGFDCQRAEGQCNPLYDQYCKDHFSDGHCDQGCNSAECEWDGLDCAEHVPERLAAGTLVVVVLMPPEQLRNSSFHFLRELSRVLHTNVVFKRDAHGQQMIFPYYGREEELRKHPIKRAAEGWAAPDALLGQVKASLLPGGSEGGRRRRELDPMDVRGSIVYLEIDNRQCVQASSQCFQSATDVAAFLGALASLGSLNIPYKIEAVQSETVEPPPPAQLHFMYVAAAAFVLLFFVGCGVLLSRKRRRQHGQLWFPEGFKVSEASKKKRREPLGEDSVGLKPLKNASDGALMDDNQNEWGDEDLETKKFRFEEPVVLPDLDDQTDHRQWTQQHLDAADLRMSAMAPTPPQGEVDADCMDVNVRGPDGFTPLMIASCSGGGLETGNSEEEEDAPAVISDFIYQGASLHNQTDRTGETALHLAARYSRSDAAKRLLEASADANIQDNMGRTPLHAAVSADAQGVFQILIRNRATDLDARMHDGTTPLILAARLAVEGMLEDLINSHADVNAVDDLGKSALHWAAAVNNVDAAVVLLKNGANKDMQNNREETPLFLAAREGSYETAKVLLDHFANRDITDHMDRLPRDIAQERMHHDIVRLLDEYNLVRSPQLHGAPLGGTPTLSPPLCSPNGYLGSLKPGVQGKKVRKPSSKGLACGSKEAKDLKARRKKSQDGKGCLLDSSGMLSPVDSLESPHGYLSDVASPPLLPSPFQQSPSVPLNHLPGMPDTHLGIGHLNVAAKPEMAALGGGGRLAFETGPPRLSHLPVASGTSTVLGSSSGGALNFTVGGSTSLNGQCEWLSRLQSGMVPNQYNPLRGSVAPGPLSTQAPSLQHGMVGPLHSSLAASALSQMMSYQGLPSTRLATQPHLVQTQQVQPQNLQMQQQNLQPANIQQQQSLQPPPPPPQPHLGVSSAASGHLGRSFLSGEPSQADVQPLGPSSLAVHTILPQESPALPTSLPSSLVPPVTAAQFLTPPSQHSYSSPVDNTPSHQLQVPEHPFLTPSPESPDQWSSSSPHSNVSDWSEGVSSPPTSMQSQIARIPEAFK
Source text: (§3) FIG. 4: Identification of a fAb that Binds a Critical Ligand Binding Domain of Notch1. FACS analysis of HEK 293 cells co-transfected with GFP and either wild type Notch or Notch1 E424Q using a human fAb identified by phage display as binding the ligand binding domain of Notch1. GFP expression marked cells expressing recombinant Notch1 protein (x-axis) and binding to Notch1 is indicated along the y-axis.
(§4) FIG. 5: Identification of an Antibody that Binds the Ligand Binding Region of Multiple Notch Receptors. FACS analysis of HEK 293 cells co-transfected with GFP and wild type Notch3, Notch1 or Notch1 E424Q using a human fAb identified by phage display as binding the ligand binding domain of Notch3. GFP expression marked transfected cells expressing recombinant Notch protein (x-axis). Binding of fAb is indicated on the y-axis.
(§5) To confirm that the lead Notch1 fAb was specific for the ligand binding region of Notch1, HEK293 cells were co-transfected with GFP and either wild type full length Notch1 or Notch1 containing the amino acid substitution E424Q.

[4] = molecular target: Notch3 (E403Q) (Homo sapiens, UniProt Q9UM47, E403Q); assay: fAb binding to Notch3 with E403Q substitution
Notch3 (E403Q), sequence (Q9UM47 40-2321 E403Q): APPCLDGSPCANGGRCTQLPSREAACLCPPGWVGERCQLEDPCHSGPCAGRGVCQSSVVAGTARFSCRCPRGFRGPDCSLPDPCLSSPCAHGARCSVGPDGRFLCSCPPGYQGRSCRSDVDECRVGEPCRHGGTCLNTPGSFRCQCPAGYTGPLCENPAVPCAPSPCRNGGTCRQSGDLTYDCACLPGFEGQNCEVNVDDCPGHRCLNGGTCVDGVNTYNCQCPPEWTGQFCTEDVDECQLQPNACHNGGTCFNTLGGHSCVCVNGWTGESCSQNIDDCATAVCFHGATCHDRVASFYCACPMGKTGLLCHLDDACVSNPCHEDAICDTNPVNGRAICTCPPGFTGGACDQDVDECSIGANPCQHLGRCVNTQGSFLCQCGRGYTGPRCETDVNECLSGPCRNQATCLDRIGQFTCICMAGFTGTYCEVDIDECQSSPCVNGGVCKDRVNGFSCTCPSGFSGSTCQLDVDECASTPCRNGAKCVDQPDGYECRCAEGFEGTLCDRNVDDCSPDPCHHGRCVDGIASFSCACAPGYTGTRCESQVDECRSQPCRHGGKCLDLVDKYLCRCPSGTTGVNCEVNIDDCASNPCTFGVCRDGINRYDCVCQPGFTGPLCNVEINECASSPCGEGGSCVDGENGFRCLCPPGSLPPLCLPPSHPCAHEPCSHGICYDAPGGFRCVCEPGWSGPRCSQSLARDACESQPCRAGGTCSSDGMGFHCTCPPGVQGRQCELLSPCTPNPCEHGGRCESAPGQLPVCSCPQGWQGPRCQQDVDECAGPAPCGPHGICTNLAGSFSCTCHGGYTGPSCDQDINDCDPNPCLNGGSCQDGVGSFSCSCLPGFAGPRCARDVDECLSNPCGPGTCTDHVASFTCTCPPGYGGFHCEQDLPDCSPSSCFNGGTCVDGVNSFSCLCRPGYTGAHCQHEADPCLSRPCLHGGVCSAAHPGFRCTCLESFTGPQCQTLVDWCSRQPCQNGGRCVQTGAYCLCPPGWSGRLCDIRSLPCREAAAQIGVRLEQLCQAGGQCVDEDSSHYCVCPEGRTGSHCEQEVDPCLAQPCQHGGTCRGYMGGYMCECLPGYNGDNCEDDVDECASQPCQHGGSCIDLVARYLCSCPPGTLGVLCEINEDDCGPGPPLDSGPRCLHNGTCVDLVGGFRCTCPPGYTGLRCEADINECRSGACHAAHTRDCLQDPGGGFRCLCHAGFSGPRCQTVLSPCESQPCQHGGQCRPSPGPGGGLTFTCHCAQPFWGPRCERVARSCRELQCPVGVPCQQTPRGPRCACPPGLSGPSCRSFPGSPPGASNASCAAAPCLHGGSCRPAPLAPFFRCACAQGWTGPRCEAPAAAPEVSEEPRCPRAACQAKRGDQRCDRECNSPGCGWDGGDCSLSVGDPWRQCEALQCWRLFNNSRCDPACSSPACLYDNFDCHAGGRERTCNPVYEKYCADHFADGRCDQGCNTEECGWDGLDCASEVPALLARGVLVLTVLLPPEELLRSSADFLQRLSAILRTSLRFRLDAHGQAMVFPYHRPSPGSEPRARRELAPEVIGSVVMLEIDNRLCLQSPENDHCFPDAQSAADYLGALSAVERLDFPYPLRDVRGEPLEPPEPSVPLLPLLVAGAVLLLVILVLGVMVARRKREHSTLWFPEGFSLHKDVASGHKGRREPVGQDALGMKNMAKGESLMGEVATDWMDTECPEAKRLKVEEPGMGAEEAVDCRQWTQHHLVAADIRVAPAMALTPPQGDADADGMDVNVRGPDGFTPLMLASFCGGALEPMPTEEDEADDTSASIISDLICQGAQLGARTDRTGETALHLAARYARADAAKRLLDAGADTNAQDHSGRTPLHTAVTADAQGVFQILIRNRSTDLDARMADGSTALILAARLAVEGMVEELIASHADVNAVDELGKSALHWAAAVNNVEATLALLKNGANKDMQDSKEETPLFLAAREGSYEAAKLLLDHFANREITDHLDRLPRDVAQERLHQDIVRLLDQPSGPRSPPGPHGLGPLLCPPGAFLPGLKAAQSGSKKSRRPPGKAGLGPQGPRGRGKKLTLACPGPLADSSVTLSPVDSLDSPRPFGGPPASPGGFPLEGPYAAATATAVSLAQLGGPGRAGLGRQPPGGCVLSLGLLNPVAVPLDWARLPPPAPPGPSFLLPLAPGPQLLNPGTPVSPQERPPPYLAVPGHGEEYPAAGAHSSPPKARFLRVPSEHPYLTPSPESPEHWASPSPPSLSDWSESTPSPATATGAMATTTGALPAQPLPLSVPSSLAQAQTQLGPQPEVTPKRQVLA
Source text: For Notch3, the phage display library was panned for binding to the analogous epitope within Notch3 (comprising amino acid 403 of Notch3) using similar approach for as Notch1. […] The 122R5 heavy chain comprises the amino acids of SEQ ID NO: 9, including CDR1 (SEQ ID NO: 10); CDR2 (SEQ ID NO: 11) and CDR3 (SEQ ID NO: 12). The 122R5 light chain comprises the amino acids of SEQ ID NO: 13, including CDR1 (SEQ ID NO: 14); CDR2 (SEQ ID NO: 15) and CDR3 (SEQ ID NO: 16).

[5] = molecular target: T2, Notch1 E424Q (Homo sapiens, UniProt P46531, E424Q); assay: FACS binding to HEK293 cells co-transfected with GFP and Notch1 E424Q; details: HEK293 cells co-transfected with GFP
T2 construct: Full-length wild type Notch1 or Notch1 E424Q was co-transfected with GFP into HEK 293 cells; expressed in transfected cells; host or cells: HEK293
T2 sequence (P46531 19-2555 E424Q): as the sequence (P46531 19-2555) above, with E406Q counted along it
Source text: as §3, §4, §5

[6] = molecular target: human Notch3 (Homo sapiens, UniProt Q9UM47); assay: fAb binding to human Notch3 (phage display selection)
human Notch3, sequence (Q9UM47 40-2321): as the sequence (Q9UM47 40-2321 E403Q) above, with Q364E counted along it
Protocol: as §1, §2

[7] = system: T3 breast tumor cells; assay: T3 breast tumor xenograft growth; format: in vivo, NOD/SCID mice; details: estrogen pellet
Protocol: (§6) FIG. 9: Monoclonal Antibodies to the Notch Ligand Binding Domain Inhibit Tumor Growth In Vivo. NOD/SCID mice were injected with dissociated PE13 (A) or T3 (B) breast tumor cells and treated with either control antibodies (black squares); anti-Notch ligand binding region antibodies 90R21 (open circles); control antibodies in combination with Paclitaxel (black triangles); or 90R21 antibodies in combination with Paclitaxel (open triangles).
(§7) In certain embodiments, tumor cells from a patient sample (solid tumor biopsy or pleural effusion) that have been passaged as a xenograft in mice were prepared for repassaging into experimental animals. Tumor tissue was removed under sterile conditions, cut up into small pieces, minced completely using sterile blades, and single cell suspensions obtained by enzymatic digestion and mechanical disruption. Specifically, pleural effusion cells or the resulting tumor pieces were mixed with ultra-pure collagenase III in culture medium (200-250 units of collagenase per mL) and incubated at 37° C. for 3-4 hours with pipetting up and down through a 10-mL pipette every 15-20 minutes. Digested cells were filtered through a […] nylon mesh, washed with RPMI/20% FBS, and washed twice with HBSS. […]
(§8) In certain embodiments, anti-Notch ligand binding region antibodies were analyzed for their ability to reduce the growth of breast tumors in vivo. […]

[8] = molecular target: T3, human Notch1 (Homo sapiens, UniProt P46531); assay: FACS: inhibition of DLL4 binding to Notch1 on stably transfected HEK293 cells; details: soluble DLL4-fc, increasing concentrations of antibody
T3 construct: expressed in transfected cells
T3 sequence (P46531 19-2555): as the sequence (P46531 19-2555) above
Protocol: FIG. 6: Affinity Matured mAbs that Bind the Ligand Binding Domain of Notch1 Inhibit Binding of DLL4 to Notch1. […] Three affinity matured variants were tested for their ability to block binding between DLL4 and Notch1 (y-axis) in the presence of increasing concentrations of antibody (x-axis).
The ability of antibodies specific for the critical ligand binding region to inhibit binding of Notch ligands to Notch was evaluated. In certain embodiments, the ability of a panel of affinity matured monoclonal antibodies specific for the Notch1 ligand binding region to inhibit binding of DLL4 to Notch1 was determined by FACS analysis (FIG. 6). HEK293 cells stably transfected with human Notch1 were incubated with soluble DLL4-fc fusion protein in the presence of increasing concentrations of 90R21, 90R22, and 90R29 antibodies. […] HEK293 cells co-transfected with GFP and full length Notch3 were incubated with a soluble human Jag1-fc fusion protein in the absence (No Ab) or presence (122R03E1) of the fAb.

[9] = system: PE13 breast tumor cells; assay: PE13 breast tumor xenograft growth; format: in vivo, NOD/SCID mice
Protocol: as §6, §7, §8

[10] = antibody 10 mg/kg twice a week in combination with Paclitaxel 10 mg/kg once a week
[11] = antibody alone 10 mg/kg twice a week, vs control antibody, after 55 days

| Molecule | formation of Notch ICD in response to DLL4 [1] | binding to murine Notch3 [2] | binding to cells expressing wild type Notch1 [3] | binding to Notch3 (E403Q) [4] | binding to cells expressing Notch1 E424Q [5] | binding to human Notch3 [6] | tumor growth, T3, combination [7, 10] | tumor growth, T3 [7, 11] | blocking of binding between DLL4 and Notch1 [8] | tumor growth, PE13, combination [9, 10] | tumor growth, PE13 [9, 11] |
| --- | --- | --- | --- | --- | --- | --- | --- | --- | --- | --- | --- |
| C[C@H](NC(=O)Cc1cc(F)cc(F)c1)C(=O)N[C@@H]1C(=O)N(C)c2ccccc2-c2ccccc21 [DBZ, reference compound] | prevented formation of Notch ICD; also recorded: blocked this signaling event | – | – | – | – | – | – | – | – | – | – |
| B1 | – | bound | ability to bind to Notch1 | not Notch3 (E403Q) | not to Notch1(E424Q) | bound | – | – | – | – | – |
| B2 | prevented formation of Notch ICD; also recorded: inhibited ICD formation | – | – | – | – | – | virtually eliminated T3 tumor growth | significantly reduced tumor growth; also recorded: reduced tumor growth significantly | blocked the binding; also recorded: disrupted ligand binding | virtually eliminated tumor growth | significantly reduced tumor growth; also recorded: reduced tumor growth significantly |
